T1: GFP-9S library array, motif 4 ND N98T;D124S (synthetic construct, N98T;D124S)
T1 chain: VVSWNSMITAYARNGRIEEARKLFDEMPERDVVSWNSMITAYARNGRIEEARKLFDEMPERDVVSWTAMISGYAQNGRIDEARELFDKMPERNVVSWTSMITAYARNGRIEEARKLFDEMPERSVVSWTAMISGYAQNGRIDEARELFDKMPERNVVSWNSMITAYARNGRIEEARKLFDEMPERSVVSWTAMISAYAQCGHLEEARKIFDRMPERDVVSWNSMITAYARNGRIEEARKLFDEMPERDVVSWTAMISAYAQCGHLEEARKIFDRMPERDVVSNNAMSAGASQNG

T2: GFP-9S library array, motif 4 ND N98S;D124R (synthetic construct, N98S;D124R)
T2 chain: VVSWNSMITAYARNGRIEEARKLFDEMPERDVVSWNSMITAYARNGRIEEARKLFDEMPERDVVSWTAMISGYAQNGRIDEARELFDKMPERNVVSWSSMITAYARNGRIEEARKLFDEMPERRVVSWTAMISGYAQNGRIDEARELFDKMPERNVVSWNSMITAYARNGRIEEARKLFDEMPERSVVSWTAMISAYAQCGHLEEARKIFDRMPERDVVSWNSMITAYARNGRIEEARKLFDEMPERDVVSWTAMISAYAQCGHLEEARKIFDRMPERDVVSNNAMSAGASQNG

T3: GFP-9S library array, motif 4 ND N98D;D124W (synthetic construct, N98D;D124W)
T3 chain: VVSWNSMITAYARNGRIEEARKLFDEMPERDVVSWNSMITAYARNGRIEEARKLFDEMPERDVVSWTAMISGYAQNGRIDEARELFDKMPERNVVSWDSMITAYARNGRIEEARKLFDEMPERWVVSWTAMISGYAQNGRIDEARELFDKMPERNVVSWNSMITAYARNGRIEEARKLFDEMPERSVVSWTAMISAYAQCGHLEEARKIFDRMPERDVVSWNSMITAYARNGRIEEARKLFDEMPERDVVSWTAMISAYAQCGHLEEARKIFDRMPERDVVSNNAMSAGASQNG

T4: GFP-9S library array, motif 4 ND N98G;D124P (synthetic construct, N98G;D124P)
T4 chain: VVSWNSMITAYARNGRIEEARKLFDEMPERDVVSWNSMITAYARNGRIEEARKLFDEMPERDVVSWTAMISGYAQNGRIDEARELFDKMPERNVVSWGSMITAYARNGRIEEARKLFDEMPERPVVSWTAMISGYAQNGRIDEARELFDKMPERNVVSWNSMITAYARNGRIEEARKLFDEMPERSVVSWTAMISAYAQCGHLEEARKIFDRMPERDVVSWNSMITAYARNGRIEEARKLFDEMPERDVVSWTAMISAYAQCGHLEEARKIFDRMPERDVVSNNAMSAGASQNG

T5: GFP-9S library array, motif 4 ND N98T;D124C (synthetic construct, N98T;D124C)
T5 chain: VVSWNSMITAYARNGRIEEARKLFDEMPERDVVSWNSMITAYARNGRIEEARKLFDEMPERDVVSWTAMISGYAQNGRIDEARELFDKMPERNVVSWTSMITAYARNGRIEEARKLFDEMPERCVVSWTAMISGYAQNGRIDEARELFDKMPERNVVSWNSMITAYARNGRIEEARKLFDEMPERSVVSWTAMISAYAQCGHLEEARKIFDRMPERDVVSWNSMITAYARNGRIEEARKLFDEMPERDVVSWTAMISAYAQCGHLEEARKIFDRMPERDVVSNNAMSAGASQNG


Experiments:
Test in all cases: high-throughput RNA pulldown from lysate on Ni-NTA beads; HRP: 50 mM Tris pH 8, 150 mM NaCl, 1 mM beta-mercaptoethanol, 50 ug/ml BSA, 3 ug/ml yeast RNA, 0.5% heparin; ITC and FP: Tris pH 8, 200 mM KCl, 5% glycerol; MST: 50 mM Tris pH 8, 200 mM NaCl, 1 mM DTT, BSA, heparin, 0.05% Tween 20
Conditions in all cases: tags: N-terminal His-eGFP
[1] = target: T1, GFP-9S library array, motif 4 ND …
[2] = target: T2, GFP-9S library array, motif 4 ND …
[3] = target: T3, GFP-9S library array, motif 4 ND …
[4] = target: T4, GFP-9S library array, motif 4 ND …
[5] = target: T5, GFP-9S library array, motif 4 ND …

Binder | Kd ([1]; label: 5' IRDye 800CW) [nM] | Kd ([2]; label: 5' IRDye 800CW) [nM] | Kd ([3]; label: 5' IRDye 800CW) [nM] | Kd ([4]; label: 5' IRDye 800CW) [nM] | Kd ([5]; label: 5' IRDye 800CW) [nM] | Kd ([1]; label: 5' Cy5) [nM] | Kd ([2]; label: 5' Cy5) [nM] | Kd ([3]; label: 5' Cy5) [nM] | Kd ([4]; label: 5' Cy5) [nM] | Kd ([5]; label: 5' Cy5) [nM]
AUUAAACGUGA (ssRNA) [IR-rpoA-A] | 18.4 | 63.5 | 572 | 179 | 88.6 |  |  |  |  | 
AUUAGACGUGA (ssRNA) [Cy5-rpoA-G] |  |  |  |  |  | 65.5 | 97.8 | 178 | 127 | 8.1
AUUACACGUGA (ssRNA) [Cy5-rpoA] |  |  |  |  |  | 37 | 87.7 | 134 | 85.9 | 330
AUUAUACGUGA (ssRNA) [IR-rpoA-U] | 48.8 | 109 | 202 | 128 | 119 |  |  |  |  | 

From PMC8809517, “Cofactor-independent RNA editing by a synthetic S-type PPR protein”
